Biological target: T1, human CD2 (cluster of differentiation 2) (human, UniProt P06729 25-351)
T1 construct: Presented on cells: human CD8+ T cells, CD2-transduced U698M B-cell lymphoma cells, Jurkat cells and human PBMCs; also called CD2 target antigen; CD2 surface marker
T1 sequence: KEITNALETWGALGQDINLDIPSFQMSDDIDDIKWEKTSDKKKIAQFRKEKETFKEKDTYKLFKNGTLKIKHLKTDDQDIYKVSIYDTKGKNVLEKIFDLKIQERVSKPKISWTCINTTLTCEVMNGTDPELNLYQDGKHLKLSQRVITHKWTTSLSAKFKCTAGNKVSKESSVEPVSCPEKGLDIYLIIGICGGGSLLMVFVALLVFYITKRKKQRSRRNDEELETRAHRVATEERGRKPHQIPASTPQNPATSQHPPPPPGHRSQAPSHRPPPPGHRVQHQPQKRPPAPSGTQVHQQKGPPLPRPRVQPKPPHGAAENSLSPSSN
Test: flow cytometry titration on human CD8+ T cells, one-site specific binding fit, triplicates
Experimental: Determined affinity binding curves for CD2-sdAb (B) at different concentrations on human CD8+ T cells. R3b23-sdAb served as a negative control for unspecific binding (A). Binding of CD2-sdAb (B) is shown as a fraction of the maximum specific binding (Bₘₐₓ) and the binding intensity of R3b23-sdAb (A) is shown via the MFI at the different concentrations. Measurements were performed in triplicates and data is depicted on a semi-logarithmic scale. The dissociation constant (Ko) for CD2 was calculated based of one-site specific binding and is 2.3×10⁻⁹ [M].

Kd: 2.3 nM
B1: anti-CD2 single domain antibody according to SEQ ID No. 18 (VHH)
VHH: QVQLQESGGGSVQPGGSLRLSCTVSGRTFSNYAVGWFRQAPGKEREFVATITGSGTAYADSVKGRFTISRDNAKNTVYLQMNSLKPEDTAVYYCAATWSSGYTFRSPTQYDYWGQGTQVTVSS
notes: also called CD2-sdAb; anti-CD2-sdAb
